The target of one experiment is KNP-301 (UniProt Q9Y279). Put plainly: SPR. For orientation: Surface plasmon resonance follows binding to a sensor surface in real time, without labels.
Another experiment has as its target Human VEGF165 (human). The experiment in a line: ELISA.
In a further experiment the target is rabbit C3b (rabbit) (UniProt P12247). The experiment in a line: ELISA. Background: ELISA stands for enzyme-linked immunosorbent assay.
Experiment [1] deals with cynomolgus VEGF (cynomolgus monkey). Put plainly: ELISA.
In a further experiment the target is human C3b (human) (UniProt P01024). Put plainly: ELISA.
The target of another experiment is rabbit VEGF (rabbit). The experiment in a line: ELISA.
The next experiment deals with rat C3b (rat) (UniProt P01026). Put plainly: ELISA.
Chain of UniProt P01026 (P01026 25-1663): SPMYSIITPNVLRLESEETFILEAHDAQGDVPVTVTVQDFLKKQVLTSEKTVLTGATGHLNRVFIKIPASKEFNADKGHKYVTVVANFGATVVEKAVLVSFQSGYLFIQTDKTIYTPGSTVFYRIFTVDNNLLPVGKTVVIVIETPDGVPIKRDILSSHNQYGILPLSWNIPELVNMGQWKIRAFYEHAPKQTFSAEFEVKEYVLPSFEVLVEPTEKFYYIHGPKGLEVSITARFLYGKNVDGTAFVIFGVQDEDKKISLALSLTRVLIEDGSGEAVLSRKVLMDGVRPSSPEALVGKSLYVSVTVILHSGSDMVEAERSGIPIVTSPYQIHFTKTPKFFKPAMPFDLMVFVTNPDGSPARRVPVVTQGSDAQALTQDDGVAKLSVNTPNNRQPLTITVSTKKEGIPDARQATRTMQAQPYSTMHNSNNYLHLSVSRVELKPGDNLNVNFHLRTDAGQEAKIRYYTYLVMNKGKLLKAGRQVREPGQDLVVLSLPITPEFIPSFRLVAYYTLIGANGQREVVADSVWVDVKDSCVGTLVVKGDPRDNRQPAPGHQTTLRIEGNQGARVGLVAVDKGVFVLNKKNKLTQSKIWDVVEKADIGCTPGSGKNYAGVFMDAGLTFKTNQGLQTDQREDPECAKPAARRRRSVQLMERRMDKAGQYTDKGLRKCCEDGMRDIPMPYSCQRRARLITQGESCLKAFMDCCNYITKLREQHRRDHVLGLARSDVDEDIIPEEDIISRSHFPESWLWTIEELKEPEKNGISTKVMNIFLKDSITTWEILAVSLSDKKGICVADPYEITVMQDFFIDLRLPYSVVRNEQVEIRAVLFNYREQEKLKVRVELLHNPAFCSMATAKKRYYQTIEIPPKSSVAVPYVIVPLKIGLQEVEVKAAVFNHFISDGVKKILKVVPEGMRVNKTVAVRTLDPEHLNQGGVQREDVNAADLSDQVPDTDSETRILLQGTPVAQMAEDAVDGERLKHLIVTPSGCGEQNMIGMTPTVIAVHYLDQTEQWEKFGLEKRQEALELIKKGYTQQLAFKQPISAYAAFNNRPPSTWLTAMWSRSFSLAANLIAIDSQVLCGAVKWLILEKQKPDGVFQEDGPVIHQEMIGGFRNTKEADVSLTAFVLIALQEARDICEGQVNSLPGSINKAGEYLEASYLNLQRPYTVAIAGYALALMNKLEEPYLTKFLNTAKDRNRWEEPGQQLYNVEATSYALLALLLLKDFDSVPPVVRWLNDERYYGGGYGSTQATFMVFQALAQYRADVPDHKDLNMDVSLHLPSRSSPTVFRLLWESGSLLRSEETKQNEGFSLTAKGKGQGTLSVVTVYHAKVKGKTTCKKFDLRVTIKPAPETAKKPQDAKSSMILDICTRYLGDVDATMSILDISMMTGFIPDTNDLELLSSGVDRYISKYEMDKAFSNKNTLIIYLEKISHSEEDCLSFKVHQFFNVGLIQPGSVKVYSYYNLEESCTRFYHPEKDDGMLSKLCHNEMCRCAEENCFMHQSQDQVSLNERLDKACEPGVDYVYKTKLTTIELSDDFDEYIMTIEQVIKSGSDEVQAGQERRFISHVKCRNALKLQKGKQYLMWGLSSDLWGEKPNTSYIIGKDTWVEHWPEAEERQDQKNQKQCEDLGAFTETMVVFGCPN
The next experiment addresses C3 (UniProt P01024). Put plainly: ELISA.
A further experiment has as its target rat VEGF (rat) (UniProt P16612). Put plainly: ELISA.
Experiment [2] deals with cynomolgus C3b (cynomolgus monkey). The experiment in a line: ELISA.

From article PMC11246403 come the findings set out here.

Chain of UniProt P12247 (P12247 whole entry, chain 1 of 2): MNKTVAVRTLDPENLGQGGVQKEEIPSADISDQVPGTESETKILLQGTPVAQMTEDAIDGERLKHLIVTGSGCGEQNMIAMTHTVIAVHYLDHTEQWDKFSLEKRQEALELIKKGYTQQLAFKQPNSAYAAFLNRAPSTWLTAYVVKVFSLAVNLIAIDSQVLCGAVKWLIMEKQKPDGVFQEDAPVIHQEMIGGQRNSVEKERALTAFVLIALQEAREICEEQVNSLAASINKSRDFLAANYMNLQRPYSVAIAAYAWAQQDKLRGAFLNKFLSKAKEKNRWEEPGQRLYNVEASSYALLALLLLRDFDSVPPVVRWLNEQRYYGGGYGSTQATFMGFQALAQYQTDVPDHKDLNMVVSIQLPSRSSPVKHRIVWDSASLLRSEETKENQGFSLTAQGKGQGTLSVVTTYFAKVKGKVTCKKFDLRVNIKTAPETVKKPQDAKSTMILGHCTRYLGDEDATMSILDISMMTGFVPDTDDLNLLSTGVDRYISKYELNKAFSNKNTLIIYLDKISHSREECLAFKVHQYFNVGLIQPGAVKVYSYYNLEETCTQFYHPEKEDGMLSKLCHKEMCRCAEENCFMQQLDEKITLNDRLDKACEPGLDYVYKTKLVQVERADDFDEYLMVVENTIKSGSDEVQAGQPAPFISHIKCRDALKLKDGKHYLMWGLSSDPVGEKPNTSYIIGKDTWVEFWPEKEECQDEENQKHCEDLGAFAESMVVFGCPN
Chain of UniProt P12247 (P12247 whole entry, chain 2 of 2): as the sequence (P12247 whole entry, chain 1 of 2) above

A word on the Kd: it is the concentration at which binding is half-saturated. A lower Kd goes with a tighter complex. The substance Human VEGF165 (ligand) had a Kd with KNP-301 of 0.0628 nM.
“KNP-301 (from UniProt Q9Y279 20-283) (Fc fusion)”: the relative binding affinity (%) with Human VEGF165 (human) came to 100%; in the experiment with rabbit C3b (rabbit), 1.2%; in [1] it was 75.8%; with human C3b (human) it was 100%; with rabbit VEGF (rabbit) it was 165%; with rat C3b (rat), 6.3%. The values for the relative binding affinity (%) (with rat VEGF (rat); in [2]) were 80.8% and 78.3%, respectively. In the experiment with C3, the fold lower binding affinity than to C3b (ratio of IC50 values) came out at 10 fold.
The substance “human C3b (from UniProt P01024 23-667; P01024 749-1663) (natural protein)” gave a Kd in the experiment with KNP-301 of 4.34 nM. That is a single-digit nanomolar value.
